This note sets out measurements from patent US7029857B1, “Processes for obtaining compounds employing SNORF72 receptors” (H. Lundbeck A/S, priority 1999, dated 2006).

For one experiment, the target named is T1, SNORF72 (Homo sapiens, UniProt Q9GZQ4, A395T).
T1 construct: expressed in transfected cells; host or cells: COS-7 (transient, DEAE-dextran)
The experiment in a line: Intracellular Ca2+ release (FLIPR) in SNORF72-transfected COS-7 cells. Format: cell-based. The note with it: stimulation of Ca2+ release, SNORF72-transfected COS-7 cells, n = 2-7 (Table 1A). The protocol:
(§1) A typical protocol for the DEAE-dextran method as applied to COS-7 and HEK293 cells is described as follows. Cells to be used for transfection are split 24 hours prior to the transfection to provide flasks which are 70–80% confluent at the time of transfection. Briefly, 8 μg of receptor DNA plus 8 μg of any additional DNA needed (e.g. Gα protein expression vector, reporter construct, antibiotic resistance marker, mock vector, etc.) are added to 9 ml of complete DMEM plus DEAE-dextran mixture (10 mg/ml in PBS). Cells plated into a T225 flask (sub-confluent) are washed once with PBS and the DNA mixture is added to each flask. The cells are allowed to incubate for 30 minutes at 37° C., 5% CO2. Following the incubation, 36 ml of complete DMEM with 80 μM chloroquine is added to each flask and allowed to incubate an additional 3 hours. The medium is then aspirated and 24 ml of complete medium containing 10% DMSO for exactly 2 minutes and then aspirated. The cells are then washed 2 times with PBS and 30 ml of complete DMEM added to each flask. The cells are then allowed to incubate over night. The next day the cells are harvested by trypsinization and reseeded into 96 well plates.
(§2) Cells expressing the receptor of interest are plated into clear, flat-bottom, black-walled 96-well plates (Costar) at a density of 80,000–150,000 cells per well and allowed to incubate for 48 hr at 5% CO2, 37° C. The growth medium is aspirated and 100 μL of loading medium containing Fluo-3 dye is added to each well. The loading medium contains: 20 mM HEPES (Sigma), 0.1% BSA (Sigma), dye/pluronic acid mixture (e.g. 1 mM Fluo-3/AM (Molecular Probes) and 10% pluronic acid (Molecular Probes) mixed immediately before use), and 2.5 mM probenecid (Sigma)(prepared fresh). The cells are allowed to incubate for about 1 hour at 5% CO2, 37° C.
(§3) The compounds of interest are diluted in wash buffer (Hank's BSS (without phenol red), 20 mM HEPES, 2.5 mM probenecid) to a 4× final concentration and aliquoted into a clear v-bottom plate (Nunc). Following the dye incubation, the cells are washed 4 times to remove excess dye using a Denley plate washer. 100 μL final volume of wash buffer is then added to each cell well. Compounds are added to the cell plates and responses are measured using the FLIPR™ instrument. The data are then collected and analyzed using the FLIPR™ software and Graphpad Prism.
(§4) COS-7 cells were transiently transfected with SNORF62, SNORF72 or vector DNA (mock) as described in Materials and Methods.

For experiment [1], the target named is T2, SNORF62 (Homo sapiens, UniProt Q9HB89).
T2 sequence (Q9HB89 1-426): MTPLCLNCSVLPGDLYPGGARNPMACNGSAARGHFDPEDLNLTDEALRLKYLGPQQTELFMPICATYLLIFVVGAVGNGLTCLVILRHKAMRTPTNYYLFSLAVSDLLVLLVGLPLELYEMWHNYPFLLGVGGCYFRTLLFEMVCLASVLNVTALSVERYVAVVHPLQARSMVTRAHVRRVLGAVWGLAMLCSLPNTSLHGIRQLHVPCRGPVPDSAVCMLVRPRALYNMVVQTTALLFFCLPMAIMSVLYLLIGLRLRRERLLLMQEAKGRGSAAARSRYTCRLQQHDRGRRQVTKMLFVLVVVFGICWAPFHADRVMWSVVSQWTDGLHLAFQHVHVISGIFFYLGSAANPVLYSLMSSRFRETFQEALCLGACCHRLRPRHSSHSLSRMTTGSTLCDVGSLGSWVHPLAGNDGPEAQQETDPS
The experiment in a line: Calcium-activated Cl- currents in Xenopus oocytes injected with SNORF62 mRNA. It is filed as cell-based. Also on record: from linearized plasmids or PCR products containing the complete coding region of the gene; expressed in transfected cells; host or cells: Xenopus laevis oocytes injected with in vitro transcribed SNORF62 mRNA. To be noted: 1 μM peptide, n=3. As to the method: Heterologous expression of GPCRs in Xenopus oocytes has been widely used to determine the identity of signaling pathways activated by agonist stimulation (Gundersen et al., 1983; Takahashi et al., 1987). Activation of the phospholipase C (PLC) pathway is assayed by applying a test compound in ND96 solution to oocytes previously injected with mRNA for the human SNORF62 and observing inward currents at a holding potential of approximately −80 mV. The appearance of currents that reverse at −25 mV and display other properties of the Ca^++-activated Cl^− channel is indicative of receptor-acitivation of PLC and release of IP3 and intracellular Ca^++.
In the present invention, oocytes were harvested from Xenopus laevis and injected with mRNA transcripts as previously described (Quick and Lester, 1994; Smith et al., 1997). SNORF62 mRNA transcript was synthesized using the T7 polymerase (“Message Machine”, Ambion) from linearized plasmids or PCR products containing the complete coding region of the gene. Oocytes were injected with 1–50 ng synthetic receptor RNA and incubated for 3–8 days at 17° C. Currents were recorded under dual electrode voltage clamp (Axon Instruments Inc.) with 3 M KCl-filled glass microelectrodes having resistances of 1–2 Mohm. Unless otherwise specified, oocytes were voltage clamped at a holding potential of −80 mV. […]

The target in experiment [2] is T2, SNORF62. The experiment in a line: Intracellular Ca2+ release (FLIPR) in SNORF62-transfected COS-7 cells. It is filed as cell-based. Also on record: The SNORF62 cDNA codes for a protein of 426 amino acids; expressed in transfected cells; host or cells: COS-7 (transient, DEAE-dextran). The note with it: stimulation of Ca2+ release, SNORF62-transfected COS-7 cells, n = 2-7 (Table 1A). As to the method: as §1, §2, §3, §4

In experiment [3] the target is T2, SNORF62. The experiment in a line: Displacement of [125I]rat NMU-23 binding in SNORF62-transfected COS-7 membranes. Also on record: The SNORF62 cDNA codes for a protein of 426 amino acids; expressed in transfected cells; host or cells: COS-7 (transient, DEAE-dextran). To be noted: binding affinity, SNORF62-transfected COS-7 cells (Table 1A); read-out: SNORF62 Avg Ki. The protocol:
The specifics of preparing such cell membranes may in some cases be determined by the nature of the ensuing assay but typically involve harvesting whole cells and disrupting the cell pellet by sonication in ice cold buffer (e.g. 20 mM Tris HCl, mM EDTA, pH 7.4 at 4° C.). The resulting crude cell lysate is cleared of cell debris by low speed centrifugation at 200×g for 5 min at 4° C. The cleared supernatant is then centrifuged at 40,000×g for 20 min at 4° C., and the resulting membrane pellet is washed by suspending in ice cold buffer and repeating the high speed centrifugation step. The final washed membrane pellet is resuspended in assay buffer. Protein concentrations are determined by the method of Bradford (1976) using bovine serum albumin as a standard. The membranes may be used immediately or frozen for later use.
(§5) Radioligand binding assays were performed by diluting membranes prepared from cells expressing the receptor in 50 mM Tris buffer (pH=7.4 at 0° C.) containing 0.1% bovine serum albumin (Sigma), aprotinin (0.005 mg/ml, Boehringer Mannheim) and bestatin (0.1 mM, Sigma) as protease inhibitors. The final protein concentration in the assay was 12–40 μg/ml. […] The bound ligand was separated from free by filtration through GF/B filters presoaked in 0.5% polyethyleneimine (PEI), using a Tomtec (Wallac) vacuum filtration device. After addition of Ready Safe (Beckman) scintillation fluid, bound radioactivity was quantitated using a Trilux (Wallac) scintillation counter (approximately 40% counting efficiency of bound counts). Data was fit to non-linear curves using GraphPad Prism.
In this manner, agonist or antagonist compounds that bind to the receptor may be identified as they inhibit the binding of the labeled ligand to the membrane protein of cells expressing the said receptor. Non-specific binding was defined as the amount of radioactivity remaining after incubation of membrane protein in the presence of 100 nM of the unlabeled peptide corresponding to the radioligand used. In equilibrium saturation binding assays membrane preparations or intact cells transfected with the receptor are incubated in the presence of increasing concentrations of the labeled compound to determine the binding affinity of the labeled ligand.

The target in experiment [4] is T3, human SNORF72 receptor (human, UniProt Q9GZQ4 1-415).
T3 construct: Full-length receptor (longest open reading frame), transiently expressed in COS-7 cells (whole cells or membranes prepared from them); also called hSNORF72; NMU receptor
The experiment in a line: displacement of [125I]rat NMU-23 (0.05-0.1 nM), membranes of SNORF72-transfected COS-7 cells, n=2. As to the method: as §5, with “µg/ml.” for “μg/ml.”
On the technique in general: Displacement assays read how much labelled ligand stays bound in the presence of the test substance.

In experiment [5] the target is T4, human SNORF62 receptor (human, UniProt Q9HB89 1-426).
T4 sequence: T2 sequence (Q9HB89 1-426)
The experiment in a line: cell-based or functional assay.

For experiment [6], the target named is T4, human SNORF62 receptor. The experiment in a line: displacement of [125I]rat NMU-23, membranes of SNORF62-transfected COS-7 cells. The protocol: as §5, with “µg/ml.” for “μg/ml.”
Experiment [7] has as its target T4, human SNORF62 receptor. The experiment in a line: cell-based or functional assay. This is another data set of the same source.
Experiment [8] has as its target T3, human SNORF72 receptor. The experiment in a line: cell-based or functional assay.
Experiment [9] deals with T4, human SNORF62 receptor. The experiment in a line: cell-based or functional assay. The source holds these as a separate data set.
The target in experiment [10] is T4, human SNORF62 receptor. The experiment in a line: displacement of [125I]rat NMU-23 (0.05-0.1 nM), membranes of SNORF62-transfected COS-7 cells, n=2. As to the method:
as §5, with “µg/ml.” for “μg/ml.”

Experiment [11] deals with T3, human SNORF72 receptor. The experiment in a line: displacement of [125I]rat NMU-23, membranes of SNORF72-transfected COS-7 cells. The protocol: as §5, with “µg/ml.” for “μg/ml.”

No end group written: not given here.

T3 sequence (Q9GZQ4 other isoform, or with tags, fused parts or gaps): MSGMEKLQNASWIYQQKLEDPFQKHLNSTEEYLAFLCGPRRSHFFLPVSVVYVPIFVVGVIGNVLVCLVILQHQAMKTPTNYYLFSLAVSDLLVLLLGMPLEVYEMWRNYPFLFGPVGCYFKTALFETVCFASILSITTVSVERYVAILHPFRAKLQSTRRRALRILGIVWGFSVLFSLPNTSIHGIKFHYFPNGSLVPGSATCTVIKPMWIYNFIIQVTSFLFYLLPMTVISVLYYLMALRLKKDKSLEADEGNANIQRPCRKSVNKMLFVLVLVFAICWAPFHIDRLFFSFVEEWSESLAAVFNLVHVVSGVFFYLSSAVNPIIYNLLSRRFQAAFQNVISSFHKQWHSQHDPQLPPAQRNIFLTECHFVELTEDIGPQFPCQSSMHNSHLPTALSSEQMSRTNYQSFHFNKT
T1 sequence (Q9GZQ4 whole entry A395T): as the sequence (Q9GZQ4 other isoform, or with tags, fused parts or gaps) above

As a reminder, the EC50 is the concentration needed to bring the measured effect to its halfway point. Broadly, the Ki is a dissociation constant, usually derived from enzyme kinetics or from competition with a known ligand. As for `CC[C@H](C)[C@H](NC(=O)[C@@H]1CCCN1C(=O)CNC(=O)[C@H](CCC(N)=O)NC(=O)[C@H](Cc1ccccc1)NC(=O)[C@H](CCC(=O)O)NC(=O)[C@H](CCC(=O)O)NC(=O)[C@H](CC(=O)O)NC(=O)[C@@H](NC(=O)[C@H](CCCCN)NC(=O)[C@@H](N)Cc1ccccc1)C(C)C)C(=O)N[C@H](C(=O)N[C@@H](CO)C(=O)N[C@@H](CCC(N)=O)C(=O)N[C@@H](CC(N)=O)C(=O)N[C@@H](CCCNC(=N)N)C(=O)N[C@@H](CCCNC(=N)N)C(=O)N[C@@H](Cc1ccc(O)cc1)C(=O)N[C@@H](Cc1ccccc1)C(=O)N[C@@H](CC(C)C)C(=O)N[C@@H](Cc1ccccc1)C(=O)N[C@@H](CCCNC(=N)N)C(=O)N1CCC[C@H]1C(=O)N[C@@H](CCCNC(=N)N)C(=O)N[C@@H](CC(N)=O)C(N)=O)C(C)C` [porcine NMU-25, FKVDEEFQGPIVSQNRRYFLFRPRN—NH2], the EC50 came out at 3 ± 0.7 nM at SNORF72 and 5.2 ± 0.8 nM at SNORF62 [2]. Further, the current amplitude on SNORF62 [1] was found to be 2150±330 nA. At SNORF62 [3], the inhibition constant (Ki) was found to be 1.1 ± 0.2 nM.
By pKi is commonly meant the negative decadic logarithm of the Ki, by convention in mol/L. Low readings indicate a large Ki, high ones a small Ki. On to FRVDEEFQSPFASQSRGYFLFRPRN-NH2 (also called human neuromedin U-25) [human NMU-25], for which the pKi was 8.5 with human SNORF72 receptor [4] and 8.7 in the experiment with human SNORF62 receptor [10]. The “AVG EC50 (nM), stimulation of Ca++ release in SNORF62-transfected COS-7 cells (FLIPR)” value with human SNORF62 receptor [5] is 4 nM. This molecule had a Ki in the experiment with human SNORF62 receptor [6] of 2 nM. Also, in the experiment with human SNORF62 receptor [7], the “Avg EC50 (nM), stimulation of Ca2+ release in SNORF62-transfected COS-7 cells” value was determined as 4 nM. Moreover, the “Avg EC50 (nM), stimulation of Ca2+ release in SNORF72-transfected COS-7 cells” value with human SNORF72 receptor [8] is 2.4 nM. Also, the “EC50, release of IP second messengers in SNORF62-transfected COS-7 cells” value in the experiment with human SNORF62 receptor [9] was 0.25 nM. Also, in the experiment with human SNORF62 receptor [9], the “release of IP second messengers, fold above basal, in SNORF62-transfected COS-7 cells” value was roughly 2 fold.
In the case of FKVDEEFQGPIVSQNRRYFLFRPRN-NH2 (also called porcine neuromedin U-25) [porcine NMU-25], the pKi was found to be 8.7 with human SNORF72 receptor [4] and 9 with human SNORF62 receptor [10]. The “AVG EC50 (nM), stimulation of Ca++ release in SNORF62-transfected COS-7 cells (FLIPR)” value in the experiment with human SNORF62 receptor [5] came out at 5.2 nM. Further, the “Avg EC50 (nM), stimulation of Ca2+ release in SNORF62-transfected COS-7 cells” value in the experiment with human SNORF62 receptor [7] amounted to 5.2 nM. In the experiment with human SNORF72 receptor [8], the “Avg EC50 (nM), stimulation of Ca2+ release in SNORF72-transfected COS-7 cells” value is 3 nM. In addition, the inhibition constant Ki in the experiment with human SNORF72 receptor [11] is 1.8 nM.
